Test results published in patent publication US20180360932A1 (OPKO BIOLOGICS, published 2018).

Biological target: Tissue factor (TF), P13726
Assay: cell-based or functional assay

Sequence of Tissue factor (TF), P13726 (P13726 33-295): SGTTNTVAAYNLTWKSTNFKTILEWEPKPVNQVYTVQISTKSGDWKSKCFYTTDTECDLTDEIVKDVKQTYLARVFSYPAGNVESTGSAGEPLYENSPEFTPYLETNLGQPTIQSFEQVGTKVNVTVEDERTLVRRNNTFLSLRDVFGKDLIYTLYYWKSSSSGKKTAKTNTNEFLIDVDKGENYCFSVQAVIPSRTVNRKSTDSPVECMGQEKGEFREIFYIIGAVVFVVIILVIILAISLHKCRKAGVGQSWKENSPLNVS

B1: MOD-5014 (FVIIa-CTP3; activated Factor VII-CTP-CTP-CTP), P08709 61-212 (enzyme)
chain 1: ANAFLEELRPGSLERECKEEQCSFEEAREIFKDAERTKLFWISYSDGDQCASSPCQNGGSCKDQLQSYICFCLPAFEGRNCETHKDDQLICVNENGGCEQYCSDHTGTKRSCRCHEGYSLLADGVSCTPTVEYPCGKIPILEKRNASKPQGR
chain 2: IVGGKVCPKGECPWQVLLLVNGAQLCGGTLINTIWVVSAAHCFDKIKNWRNLIAVLGEHDLSEHDGDEQSRRVAQVIIPSTYVPGTTNHDIALLRLHQPVVLTDHVVPLCLPERTFSERTLAFVRFSLVSGWGQLLDRGATALELMVLNVPRLMTQDCLQQSRKVGDSPNITEYMFCAGYSDGSKDSCKGDSGGPHATHYRGTWYLTGIVSWGQGCATVGHFGVYTRVSQYIEWLQKLMRSEPRPGVLLRAPFPSSSSKAPPPSLPSPSRLPGPSDTPILPQSSSSKAPPPSLPSPSRLPGPSDTPILPQSSSSKAPPPSLPSPSRLPGPSDTPILPQ
modifications: here or on the partner: CTP units may be O-glycosylated (sites not given); gamma-carboxyglutamic acid (Gla) residues in the N-terminal region (positions not given)
B1 was tested, and the Peak (TG; MOD-5014 2.5 ug/ml + TF 1 pM; run 2) was 30.4, the Peak (TG; MOD-5014 2.5 ug/ml + TF 2.5 pM; run 1) was 93.2 and the Peak (TG; MOD-5014 2.5 ug/ml + TF 2.5 pM; run 2) was 105. For the same binder, the Peak (TG; MOD-5014 2.5 ug/ml + TF 5 pM; run 1) was 241, the Peak (TG; MOD-5014 2.5 ug/ml + TF 5 pM; run 2) was 245 and the Peak (TG; MOD-5014 5 ug/ml + TF 0.5 pM; run 1) was 13.2. It also gave a Peak (TG; MOD-5014 5 ug/ml + TF 1 pM; run 1) of 28.3, a Peak (TG; MOD-5014 5 ug/ml + TF 2.5 pM; run 1) of 94.2 and a Peak (TG; MOD-5014 5 ug/ml + TF 5 pM; run 1) of 261. The Peak (TG; MOD-5014 10 ug/ml + TF 1 pM; run 2) was 32.2, the Peak (TG; MOD-5014 10 ug/ml + TF 2.5 pM; run 2) was 92.2 and the Peak (TG; MOD-5014 10 ug/ml + TF 5 pM; run 2) was 236. It also gave a Peak; thrombin generation in severe hemophilia A pooled plasma, MOD-5014 5 ug/kg (FIG. 83), TF 0.5 pM, run #2 of 14.3, a Peak; thrombin generation in severe hemophilia A pooled plasma, MOD-5014 5 ug/kg (FIG. 83), TF 1 pM, run #2 of 28.6 and a Peak; thrombin generation in severe hemophilia A pooled plasma, MOD-5014 5 ug/kg (FIG. 83), TF 2.5 pM, run #2 of 104. For the same binder, the Peak; thrombin generation in severe hemophilia A pooled plasma, MOD-5014 5 ug/kg (FIG. 83), TF 5 pM, run #2 was 254, the StartTail (TG; MOD-5014 1.25 ug/ml + TF 0.5 pM; run 1) was 75 and the StartTail (TG; MOD-5014 1.25 ug/ml + TF 1 pM; run 1) was 40. For the same binder, the StartTail (TG; MOD-5014 1.25 ug/ml + TF 2.5 pM; run 1) was 33, the StartTail (TG; MOD-5014 1.25 ug/ml + TF 5 pM; run 1) was 25 and the StartTail (TG; MOD-5014 2.5 ug/ml + TF 0.5 pM; run 1) was 64. For the same binder, the StartTail (TG; MOD-5014 2.5 ug/ml + TF 0.5 pM; run 2) was 75, the StartTail (TG; MOD-5014 2.5 ug/ml + TF 1 pM; run 1) was 56 and the StartTail (TG; MOD-5014 2.5 ug/ml + TF 2.5 pM; run 1) was 34. For the same binder, the StartTail (TG; MOD-5014 2.5 ug/ml + TF 2.5 pM; run 2) was 31, the StartTail (TG; MOD-5014 2.5 ug/ml + TF 5 pM; run 1) was 23 and the StartTail (TG; MOD-5014 2.5 ug/ml + TF 5 pM; run 2) was 24. The StartTail (TG; MOD-5014 5 ug/ml + TF 0.5 pM; run 1) was 75, the StartTail (TG; MOD-5014 5 ug/ml + TF 1 pM; run 1) was 50 and the StartTail (TG; MOD-5014 5 ug/ml + TF 2.5 pM; run 1) was 38. The StartTail (TG; MOD-5014 10 ug/ml + TF 0.5 pM; run 2) was 72, the StartTail (TG; MOD-5014 10 ug/ml + TF 2.5 pM; run 2) was 34 and the StartTail (TG; MOD-5014 10 ug/ml + TF 5 pM; run 2) was 25. It also gave a StartTail; thrombin generation in severe hemophilia A pooled plasma, MOD-5014 5 ug/kg (FIG. 83), TF 1 pM, run #2 of 69, a StartTail; thrombin generation in severe hemophilia A pooled plasma, MOD-5014 5 ug/kg (FIG. 83), TF 2.5 pM, run #2 of 30 and a StartTail; thrombin generation in severe hemophilia A pooled plasma, MOD-5014 5 ug/kg (FIG. 83), TF 5 pM, run #2 of 23. The tt Peak (TG; MOD-5014 1.25 ug/ml + TF 0.5 pM; run 1) was 22.3, the tt Peak (TG; MOD-5014 1.25 ug/ml + TF 1 pM; run 1) was 10.3 and the tt Peak (TG; MOD-5014 1.25 ug/ml + TF 2.5 pM; run 1) was 8. It also gave a tt Peak (TG; MOD-5014 1.25 ug/ml + TF 5 pM; run 1) of 4.67, a tt Peak (TG; MOD-5014 2.5 ug/ml + TF 0.5 pM; run 1) of 22 and a tt Peak (TG; MOD-5014 2.5 ug/ml + TF 2.5 pM; run 1) of 8.35. The tt Peak (TG; MOD-5014 2.5 ug/ml + TF 2.5 pM; run 2) was 8.33, the tt Peak (TG; MOD-5014 2.5 ug/ml + TF 5 pM; run 2) was 4.67 and the tt Peak (TG; MOD-5014 5 ug/ml + TF 0.5 pM; run 1) was 21.3. The tt Peak (TG; MOD-5014 5 ug/ml + TF 1 pM; run 1) was 10.7, the tt Peak (TG; MOD-5014 5 ug/ml + TF 2.5 pM; run 1) was 8.33 and the tt Peak (TG; MOD-5014 5 ug/ml + TF 5 pM; run 1) was 4.67. It also gave a tt Peak (TG; MOD-5014 10 ug/ml + TF 1 pM; run 2) of 33.7, a tt Peak (TG; MOD-5014 10 ug/ml + TF 2.5 pM; run 2) of 8.67 and a tt Peak; thrombin generation in severe hemophilia A pooled plasma, MOD-5014 5 ug/kg (FIG. 83), TF 0.5 pM, run #2 of 21.3. For the same binder, the tt Peak; thrombin generation in severe hemophilia A pooled plasma, MOD-5014 5 ug/kg (FIG. 83), TF 1 pM, run #2 was 12.3, the tt Peak; thrombin generation in severe hemophilia A pooled plasma, MOD-5014 5 ug/kg (FIG. 83), TF 2.5 pM, run #2 was 7.67 and the tt Peak; thrombin generation in severe hemophilia A pooled plasma, MOD-5014 5 ug/kg (FIG. 83), TF 5 pM, run #2 was 4.67.
